Test results taken from PMC12316982 (Nature Communications, 2025).
Substitutions are numbered along the chain they refer to.

B1: NCS.1.3 (human IgG1) (antibody, V domains shown)
VH: QVQLQESGPRLVKPSETLSLTCSVSGESISSGGYYWTWIRQHPGKGLEWIGNIFDTGSTDYSPSLKTRLTISIDTSKNQFYLRLTSATAADTAVYYCARVGFSLETDRPYYLGLDVWGQGTTVTVSS
VL: DIVMTQSPLTLPVTPGEPASISCRSSQSLLHSNGYTYLDWYLQKPGQSPQLLIYFASNRASGVPDRFSGSGSGTYFTLKISRVEAEDVGVYYCMQAVQSPWTFGQGTKVEIK
B2: NCS.1.1 (human IgG1) (antibody, V domains shown)
VH: B1 VH with T85N
VL: B1 VL with T10S, Y54S, A56T, S99T
B3: NCS.1 (human IgG1) (antibody, V domains shown)
VH: B1 VH with Q5P, D60H, T85N, F102Y, L112F
VL: B1 VL with T10S, F55L, S99T

Biological target: stabilized neuraminidase protein (sNAp) of A/Vietnam/1203/2004 (VN04, H5N1) (Influenza A virus A/Vietnam/1203/2004 …, UniProt Q6DPL2, stabilised)
Test: ELISA
Details: both partners purified

Binder | binding result
B1 | binds
B2 | binds
B3 | binds
